Paper PMC9605988, “Juxtaposition of Bub1 and Cdc20 on phosphorylated Mad1 during catalytic mitotic checkpoint complex assembly” (Nature Communications, 2022)
Entries after “also recorded” stand apart in the source; their conditions may differ. Like-named read-outs stand apart in the source and are kept apart here. Values belong to the molecule of their own block, whether it stands above or below them.

Key:
[1] = tested on: pMad1CTD; assay: 1H,15N HSQC / CON NMR titration with pMad1CTD; format: binding, human; conditions: peptide titration, 298 K
Experimental: (§1) Uniformly-labelled proteins were expressed in M9 minimal media (6 g/L Na2HPO4, 3 g/L KH2PO4, 0.5 g/L NaCl) supplemented with 1.7 g/L yeast nitrogen base without NH4Cl and amino acids (Sigma Y1251). 1 g/L ^15NH4Cl and 4 g/L unlabelled glucose were supplemented for ^15N labelling. For ^13C/ ^15N double-labelled samples, unlabelled glucose was replaced with 3 g/L ^13C-glucose. Prior to all NMR experiments, proteins were dialysed into 20 mM HEPES, pH 7.0, 100 mM NaCl and 1 mM TCEP.
(§2) The following protein concentrations were used in NMR studies: ^1H,^15N HSQC of Mad1^CTD were collected with a 100 µM sample, whereas a 50 µM sample was used for titrations with Cdc20^N and Cdc20^α1. Cdc20^Box1 peptide was added at mM concentrations to minimise dilution during titration. […] Mad1^CTD was concentrated to 3 mM for titrations into Cdc20^N. ^1H,^15N HSQC of Mad2 were collected at 100 µM. All Mad2 NMR samples contain an R133A mutation to prevent Mad2 dimerisation. The C-Mad2 sample additionally contains an L13A mutation which favours the C-Mad2 state. Cdc20^MIM-bound C-Mad2 sample was prepared by adding a 1:2 excess of Cdc20^MIM peptide to an O-Mad2 sample with R133A mutation. To follow the O-to-C conversion of Mad2, the samples were prepared on ice and monitored using BEST ^1H,^15N-TROSY HSQC. The spectra were acquired with 16 scans and a recycle delay of 400 msec, giving an experimental time of 12 min per spectrum.
(§3) Mad1^CTD and Mad2 experiments were performed using an in-house 800 MHz Avance III spectrometer and Cdc20^N experiments were performed using an in-house 700 MHz Avance II + spectrometer, both equipped with triple resonance TCI CryoProbes. To retrieve signals that suffer from exchange broadening, we also utilised the Bruker 950 MHz Avance III spectrometer located at MRC Biomedical NMR Centre (Francis Crick Institute). Mad1^CTD and Mad2 spectra were collected at 298 K. Cdc20^N spectra were collected at 278 K to minimise exchange broadening for the largely disordered Cdc20^N.
(§4) For binding studies, the relative peak intensities were normalised to the C-terminal residue Ala718 of Mad1^CTD or Gly73 of Cdc20^N and expressed as PIbound/PIfree, with PIfree and PIbound being the peak heights of the free and bound forms, respectively. Weighted chemical shift perturbations were calculated using the equation[63]: Δδ = [(ΔδHNWHN)^2 + (ΔδNWN)^2)^2]^1/2 where ΔδHN and ΔδN are the chemical shift perturbations in ^1H and ^15N dimensions respectively. The weight factors were determined from the average variances of chemical shifts in the BMRB database, where WHN = 1 and WN = 0.16.

[2] = target: T1, O-Mad2 R133A (Homo sapiens, UniProt Q13257, R133A); assay: NMR-monitored conversion of O-Mad2 to C-Mad2; format: biochemical; conditions: for O-Mad2 to C-Mad2 conversion: substoichiometric 2 µM Cdc20MIM (1:50) to 100 µM O-Mad2 R133A
T1 construct: made in house
Experimental: as §2, §3

[3] = target: T2, Mad1CTD (unphosphorylated) (Homo sapiens, UniProt Q9Y6D9); assay: 1H,15N HSQC / CON NMR titration with unphosphorylated Mad1CTD; format: binding; conditions: peptide titration, 298 K
T2 construct: the C-terminal domain of Mad1 (residue 597–718); made in house
T2 sequence (Q9Y6D9 597-718): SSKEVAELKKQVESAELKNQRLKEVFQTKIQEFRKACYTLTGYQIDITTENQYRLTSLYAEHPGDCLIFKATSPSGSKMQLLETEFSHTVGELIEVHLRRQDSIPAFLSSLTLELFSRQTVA
Experimental: as §1
The following protein concentrations were used in NMR studies: ^1H,^15N HSQC of Mad1^CTD were collected with a 100 µM sample, whereas a 50 µM sample was used for titrations with Cdc20^N and Cdc20^α1. […] To follow the O-to-C conversion of Mad2, the samples were prepared on ice and monitored using BEST ^1H,^15N-TROSY HSQC. […]
as §4

[4] = target: the molecule itself; assay: SEC + SEC-MALS; Mad1:C-Mad2 tetramer re-purified by SEC after adding excess Mad2; hexamer formed with an excess of Mad2LL; homogeneity confirmed by SEC-MALS
[5] = tested on: Cdc20; conditions: cited from earlier work
Excerpt: NMR spectroscopy was used to obtain structural insights into the Cdc20^N:Mad1^CTD interaction. Unlabelled Cdc20^N was titrated into either ^15N-labelled Mad1^CTD or pMad1^CTD (Fig. 2c, d and Supplementary Fig. 3a, b). […] Similar to Bub1^CD1, the interaction of Cdc20 α1 with Mad1^CTD would largely be driven by hydrophobic interactions (Fig. 4e). This model predicts that Gln3 and Glu7, and Asp9 of Cdc20 α1 interact with Arg617 and Lys619, respectively of the Mad1^CTD RLK motif (Fig. 4d). This is consi ...

[6] = target: T3, preformed AF488-Bub1^CD1:Mad1^CTD complex (Mad1^CTD unphosphorylated) (UniProt Q9Y6D9 597-718, Aurora Fluor 488 (AF488) on the N-terminal Cys; phosphoserine (pSer459); phosphothreonine (pThr461)); assay: fluorescence polarisation; fluorescence anisotropy; Cdc20^N twofold series (100 μM to 6 nM, mixed 1:1) titrated into preformed AF488-Bub1^CD1:Mad1^CTD (20 nM: 2.1 µM); 25 mM HEPES pH 7.75, 1 mM TCEP, 100 mM NaCl, 0.05% Tween-20; 25 °C; conditions: both partners purified
T3 construct: Mad1 C-terminal domain (Mad1^CTD), residues 597-718; as m1; added N-terminal Cys (carries AF488) and Trp; as m7; Bub1 conserved domain 1 (CD1) peptide; also called Mad1^CTD:AF488-Bub1^CD1 complex; source: mixed from purified Mad1^CTD and synthetic peptide (20 nM: 2.1 µM); copies: 2 + 1
T3 sequence 1: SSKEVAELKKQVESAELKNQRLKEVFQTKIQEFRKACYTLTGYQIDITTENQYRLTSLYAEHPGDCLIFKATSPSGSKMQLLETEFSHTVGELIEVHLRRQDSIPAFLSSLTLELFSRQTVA
T3 sequence 2: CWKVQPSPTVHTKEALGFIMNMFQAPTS

[7] = target: T4, preformed AF488-Bub1^CD1:pMad1^CTD complex (Mad1^CTD phosphorylated at Thr716) (UniProt Q9Y6D9 597-718, phosphothreonine at 716 (pThr716) | Aurora Fluor 488 (AF488) on the N-terminal Cys; phosphoserine (pSer459); phosphothreonine (pThr461)); assay: as above; conditions: both partners purified
T4 construct: Mad1 C-terminal domain (Mad1^CTD), residues 597-718; as m2; added N-terminal Cys (carries AF488) and Trp; as m7; Bub1 conserved domain 1 (CD1) peptide; source: mixed from purified pMad1^CTD and synthetic peptide (20 nM: 2.1 µM); copies: 2 + 1
T4 sequence 1: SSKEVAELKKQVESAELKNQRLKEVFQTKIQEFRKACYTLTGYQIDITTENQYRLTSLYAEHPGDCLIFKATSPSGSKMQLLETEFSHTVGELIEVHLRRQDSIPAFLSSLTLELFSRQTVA
T4 sequence 2: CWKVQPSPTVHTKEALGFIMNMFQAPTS

[8] = tested on: pMad1CTD (Mad1CTD pT716); assay: SEC-MALS, Cdc20N with pMad1CTD; format: binding, human; conditions: 1:1.2 ratio Mad1CTD dimer to Cdc20N
Experimental: Size-exclusion chromatography coupled with multi-angle static light scattering (SEC-MALS), was performed using an Agilent 1200 series LC system with an online Dawn Helios ii system (Wyatt) equipped with a QELS + module (Wyatt) and an Optilab rEX differential refractive index detector (Wyatt). About 100 μl purified protein at ~3.0 mg/ml was auto-injected onto Superdex 75 or a Superdex 200 Increase 10/300 GL column (GE Healthcare) and run at 0.5 ml/min. The molecular masses were analysed with ASTRA 7.3.0.11 (Wyatt). Data were plotted using Prism 8.4.3 (GraphPad Software, Inc). Purified Cdc20^N and Cdc20^N mutants were incubated with Mad1^CTD wild-type or mutants at a 1:1.2 ratio of Mad1^CTD dimer to Cdc20^N.

T1 sequence (Q13257 whole entry R133A): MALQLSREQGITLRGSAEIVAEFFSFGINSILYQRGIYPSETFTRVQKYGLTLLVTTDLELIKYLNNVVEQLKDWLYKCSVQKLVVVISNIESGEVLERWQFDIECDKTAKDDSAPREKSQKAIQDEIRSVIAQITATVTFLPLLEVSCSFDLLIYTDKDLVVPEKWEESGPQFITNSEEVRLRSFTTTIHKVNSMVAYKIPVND

Molecule: O-Mad2: open Mad2 with R133A mutation to prevent dimerisation
time for O-Mad2 to C-Mad2 conversion ([2]; absence of Cdc20MIM, peer review response): 24 h

B1: Mad1^485–718 (Mad1^485), unphosphorylated (domain or fragment, UniProt Q9Y6D9 485-718, looked up)
chain: SSAEQSFLFSREEADTLRLKVEELEGERSRLEEEKRMLEAQLERRALQGDYDQSRTKVLHMSLNPTSVARQRLREDHSQLQAECERLRGLLRAMERGGTVPADLEAAAASLPSSKEVAELKKQVESAELKNQRLKEVFQTKIQEFRKACYTLTGYQIDITTENQYRLTSLYAEHPGDCLIFKATSPSGSKMQLLETEFSHTVGELIEVHLRRQDSIPAFLSSLTLELFSRQTVA
notes: Mad1 residues 485-718; Construct His6-DoubleStrep-TEV-Mad1^485–718; two copies in the tetramer and hexamer with Mad2; also called Mad1 residues 485–718
binding result [4]: binds

B2: Mad1^485–718 phosphorylated by Mps1 (pMad1^485) (domain or fragment, UniProt Q9Y6D9 485-718, looked up)
chain: SSAEQSFLFSREEADTLRLKVEELEGERSRLEEEKRMLEAQLERRALQGDYDQSRTKVLHMSLNPTSVARQRLREDHSQLQAECERLRGLLRAMERGGTVPADLEAAAASLPSSKEVAELKKQVESAELKNQRLKEVFQTKIQEFRKACYTLTGYQIDITTENQYRLTSLYAEHPGDCLIFKATSPSGSKMQLLETEFSHTVGELIEVHLRRQDSIPAFLSSLTLELFSRQTVA
modifications: phosphothreonine at 716 (predominant); lower abundant phosphorylation at Thr500, Ser538, Thr540, Thr550 and Ser551
notes: Mad1 residues 485-718; Predominantly one phosphate per monomer by intact mass; also called phosphorylated Mad1^485; phosphorylated Mad1^485–718
binding result [4]: binds

B3: Q648A/R650A: mutation of the conserved QYRL motif within Mad1CTD, ref 33 (protein, UniProt Q9Y6D9 597-718, looked up, variant Q648A R650A)
chain: SSKEVAELKKQVESAELKNQRLKEVFQTKIQEFRKACYTLTGYQIDITTENAYALTSLYAEHPGDCLIFKATSPSGSKMQLLETEFSHTVGELIEVHLRRQDSIPAFLSSLTLELFSRQTVA
binding of Cdc20 to Mad1 mutant [5]: impaired binding to Cdc20 | binding of Cdc20 to Mad1 mutant ([5]; listed as Q648A and R650A): impaired binding of Cdc20^N to Mad1

B4: Mad1^CTD RLK/AAA: Mad1CTD RLK/AAA (residues 617-619) mutant, ref 33 (protein, UniProt Q9Y6D9 597-718, looked up, variant R617A L618A K619A)
chain: SSKEVAELKKQVESAELKNQAAAEVFQTKIQEFRKACYTLTGYQIDITTENQYRLTSLYAEHPGDCLIFKATSPSGSKMQLLETEFSHTVGELIEVHLRRQDSIPAFLSSLTLELFSRQTVA
binding of Cdc20 to Mad1 mutant [5]: abolished Cdc20 binding | binding of Cdc20 to Mad1 mutant ([5]; listed as RLK/AAA): impaired binding of Cdc20^N to Mad1

Second part, led by results:

binding by NMR chemical shift perturbation [1]: weak interaction; also recorded: weaker
Molecule: MAQFAFESDLHSLL [Cdc20 α1, N-terminal α1 helix peptide of Cdc20]

O-Mad2 to C-Mad2 conversion [2]: cannot be achieved
Molecule: NLNGFDVEEAKILRLSGKPQNAPEGYQNRLKVLY [Cdc20^MIM]
O-Mad2 to C-Mad2 conversion ([2]; listed as Cdc20MIM): The majority of Mad2 remains in an open state; also recorded: nearly all of Mad2 remains in an open state

binding by NMR chemical shift perturbation [3]: not Mad1^CTD | binding by NMR chemical shift perturbation [1]: binds pMad1^CTD
Molecule: PPARWQRKAKEAA [Cdc20 Box1, Box1 motif peptide of Cdc20]
binding by NMR chemical shift perturbation ([1]; listed as pMad1CTD:Cdc20Box1): appeared stronger than that between pMad1CTD:Cdc20α1

Kd [6]: 18 µM | Kd [7]: 23 µM
B5: Cdc20^N RRK/SSS mutant (Arg27, Arg30, Lys31 to Ser) (domain or fragment, human, UniProt Q12834 1-73, looked up)
chain: MAQFAFESDLHSLLQLDAPIPNAPPASWQSSAKEAAGPAPSPMRAANRSHSAGRTPGRTPGKSSSKVQTTPSK
notes: human Cdc20, residues 1-73; The purification (with tag cleavage) is told for Cdc20^N; likely the same for the mutant; source: site-directed mutant of the Cdc20^N construct, purified

binding by SEC-MALS [8]: abolished its interaction with pMad1^CTD
B6: Cdc20^N RRK/SSS: Cdc20N with Arg27, Arg30, Lys31 mutated to Ser (protein)
chain: MAQFAFESDLHSLLQLDAPIPNAPPASWQSSAKEAAGPAPSPMRAANRSHSAGRTPGRTPGKSSSKVQTTPSK
modifications: left off: His6, N-terminal, state not stated | MBP, N-terminal, state not stated
notes: Cdc20N with Arg27, Arg30, Lys31 mutated to Ser
